{
  "source": "paper PMC9800556",
  "about": "“Kinetics of DNA strand transfer between polymerase and proofreading exonuclease active sites regulates error correction during high-fidelity replication” (The Journal of Biological Chemistry, 2022)",
  "key": {"[1]": {"target": "T1, T7 DNA polymerase (T7 DNA pol; T7 gp5 + E. coli thioredoxin) (Escherichia phage T7, UniProt P00581)", "T1 construct": "gene 5; wild-type exo-proficient (x+) gp5 catalytic subunit, purified as previously described, reconstituted with at least twofold molar excess of E. coli thioredoxin; with Thioredoxin 1", "T1 sequence (P00581 whole entry)": "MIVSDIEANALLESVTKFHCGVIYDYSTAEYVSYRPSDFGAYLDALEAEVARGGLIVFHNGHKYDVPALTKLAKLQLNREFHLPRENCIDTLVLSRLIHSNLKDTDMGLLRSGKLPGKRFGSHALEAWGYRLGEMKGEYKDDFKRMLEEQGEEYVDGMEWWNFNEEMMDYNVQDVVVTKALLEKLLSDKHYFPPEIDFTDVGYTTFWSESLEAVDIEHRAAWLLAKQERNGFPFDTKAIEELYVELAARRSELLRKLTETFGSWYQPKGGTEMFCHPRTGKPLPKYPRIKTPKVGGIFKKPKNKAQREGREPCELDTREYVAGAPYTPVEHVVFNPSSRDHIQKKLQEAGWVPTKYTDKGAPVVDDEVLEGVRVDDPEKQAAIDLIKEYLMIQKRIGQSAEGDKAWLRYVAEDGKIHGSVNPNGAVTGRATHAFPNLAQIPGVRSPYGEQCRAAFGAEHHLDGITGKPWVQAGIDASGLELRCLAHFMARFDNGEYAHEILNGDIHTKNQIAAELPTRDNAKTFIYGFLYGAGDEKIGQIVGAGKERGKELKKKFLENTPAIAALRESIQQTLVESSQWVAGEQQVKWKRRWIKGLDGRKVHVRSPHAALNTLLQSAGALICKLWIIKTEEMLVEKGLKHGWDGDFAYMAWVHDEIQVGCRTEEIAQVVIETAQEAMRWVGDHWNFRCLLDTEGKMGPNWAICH", "T1 sequence (P0AA25 2-109 partner)": "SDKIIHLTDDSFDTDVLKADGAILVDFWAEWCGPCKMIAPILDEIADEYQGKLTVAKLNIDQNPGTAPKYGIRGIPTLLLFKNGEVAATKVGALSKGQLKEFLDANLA", "assay": "rapid-quench ssDNA excision, denaturing PAGE, global fit (KinTek Explorer)", "format": "biochemical", "details": "read-out: Best fit", "description": "rapid-quench ssDNA excision, denaturing PAGE, global fit (KinTek Explorer) on T7 DNA polymerase (T7 DNA pol; T7 gp5 + E. coli thioredoxin) | dCMP binds to the free enzyme, acting as a weak competitive inhibitor for ssDNA binding"}, "[2]": {"target": "T2, T7 DNA polymerase gp5 (wild-type, exo+);thioredoxin (accessory protein) (bacteriophage T7;Escherichia coli, UniProt P00581;P0AA25 1-704;2-109, |)", "T2 sequence (P00581 whole entry, chain 1 of 2)": "as the sequence (P00581 whole entry) above", "T2 sequence (P0AA25 2-109, chain 2 of 2)": "as the sequence (P0AA25 2-109 partner) above", "assay": "equilibrium fluorescence titration (Trp-tCo FRET), quadratic fit; 2 uM thioredoxin; net Kd over pol, intermediate and exo sites; Mg2+ not stated for this titration; T7 reaction buffer (composition and pH not given in the material), 12.5 mM Mg2+; 20 C stated for rapid-quench", "details": "protein: recombinant;recombinant; tags: ;; copies: 1;1; label: tCo; primer/template, 18 nt template 5' overhang, 3'-terminal C:C mismatch"}, "[3]": {"target": "T2, T7 DNA polymerase gp5 (wild-type, …)", "assay": "equilibrium fluorescence titration (Trp-tCo FRET), quadratic fit; 12.5 mM Mg2+, 2 uM thioredoxin; net Kd over all sites; T7 reaction buffer (composition and pH not given in the material), 12.5 mM Mg2+; 20 C stated for rapid-quench", "details": "protein: recombinant;recombinant; tags: ;; copies: 1;1; label: tCo; primer/template, 18 nt template 5' overhang, A:A mismatch buried by one terminal C:G pair"}, "[4]": {"target": "T2, T7 DNA polymerase gp5 (wild-type, …)", "assay": "stopped-flow fluorescence anisotropy, global fit (with tCo-27-PThio titration); 12.5 mM Mg2+; k1 1100 uM-1 s-1, k-1 44 s-1; exo site; T7 reaction buffer (composition and pH not given in the material), 12.5 mM Mg2+; 20 C stated for rapid-quench", "details": "protein: recombinant;recombinant; tags: ;; copies: 1;1; label: 5' 6-FAM; single strand"}, "[5]": {"target": "T2, T7 DNA polymerase gp5 (wild-type, …)", "assay": "equilibrium fluorescence titration (Trp-tCo FRET), hyperbolic fit; 12.5 mM Mg2+; exo site; T7 reaction buffer (composition and pH not given in the material), 12.5 mM Mg2+; 20 C stated for rapid-quench", "details": "protein: recombinant;recombinant; tags: ;; copies: 1;1; label: tCo; single strand"}},
  "data": [
    {"molecule": "Nc1ccn([C@H]2C[C@H](O)[C@@H](COP(=O)(O)O)O2)c(=O)n1", "note": "[dCMP]", "values": [
      {"measurement": "Ki", "setting": "[1]", "value": 5.65, "unit": "mM"}
    ]},
    {"molecule": "tCo-27-PThio/45-3'MM-PThio (dsDNA, primer: tCo at position 25, Sp phosphorothioate at the 3'-terminal linkage; template: phosphorothioate at the 3'-terminal linkage) DNA 1: CCGTCGCAGCCGTCCAACCAACTACAC DNA 2: GGACGGCATTGGATCGATCTGTAGTTGGTTGGACGGCTGCGACGG", "values": [
      {"measurement": "Kd", "setting": "[2]", "value": "0.7 ± 0.1", "unit": "nM"}
    ]},
    {"molecule": "tCo-27-PThio/45-BMM-PThio (dsDNA, primer: tCo at position 25, Sp phosphorothioate at the 3'-terminal linkage; template: phosphorothioate at the 3'-terminal linkage) DNA 1: CCGTCGCAGCCGTCCAACCAACTACAC DNA 2: GGACGGCATTGGATCGATGAGTAGTTGGTTGGACGGCTGCGACGG", "values": [
      {"measurement": "Kd", "setting": "[3]", "value": "~0.5", "unit": "nM"}
    ]},
    {"molecule": "CCGTCGCAGCCGTCCAACCAACTACAC (ssDNA, Sp phosphorothioate at the 3'-terminal linkage (A*C))", "note": "[FAM-27-PThio]", "values": [
      {"measurement": "Kd", "setting": "[4]", "value": "40 ± 1.4", "unit": "nM"}
    ]},
    {"molecule": "CCGTCGCAGCCGTCCAACCAACTACAC (ssDNA, tCo (1,3-diaza-2-oxophenoxazine, C analog) at position 25; Sp phosphorothioate at the 3'-terminal linkage)", "note": "[tCo-27-PThio]", "values": [
      {"measurement": "Kd", "setting": "[5]", "value": "~60", "unit": "nM"}
    ]}
  ]
}
